Assay results published in patent US20260069656A1, “Nutritive Polypeptides and Formulations Thereof, and Methods of Production and Use Thereof” (Axcella Health Inc., priority 2013, published 2026).

Columns and labels:
[1] = Solubility of proteins (lyophilized/reconstituted or ultrafiltered); conditions: produced in E. coli unless otherwise noted
Protocol: Solubility. […] Protein samples were dried by lyophilization on a FreeZone Freeze Dry System (Labconco) using the manufacturer's standard protocol and then resuspended in buffer to the desired concentration. Centrifugal and tangential ultrafiltration were used to selectively remove buffer from the protein sample until the desired concentration was reached. Centrifugal ultrafiltration of protein solutions was performed by centrifugation (10,000×g) of 10 mg of protein in an Amicon centrifugal filter (Millipore) with a molecular weight cutoff of 3 kDa, 10 kDa, or 30 kDa, depending on the protein size, until the desired contrentration was reached. Ultrafiltration of protein solutions was performed on Hydrosart ultrafiltration cassettes (Sartorius Stedim, Bohemia, NY) with a molecular weight cutoff of 3 kDa, 10 kDa, or 30 kDa, depending on the protein size, at a cross flow rate of 12 L/m2/min. For most processes, transmembrane pressure was maintained at 20 psi and performed until the desired contrentration was reached.
The protein concentration of the above samples was measured by one or a combination of the following methods: Coomassie Plus Protein Assay, absorbance at 280 nm (A280), and total amino acid analysis. Coomassie Plus Protein Assays (Pierce) were performed according to the manufacturer's protocol. Absorbance at 280 nm was measured on a Nanodrop 2000 UV-Vis spectrophotometer. Protein concentration was determined using the A280 value and molar extinction coefficient, which was calculated by primary amino acid sequence using ProtParam (Gasteiger, Elisabeth, et al. The proteomics protocols handbook. Humana Press, 2005. 571-607.). Total amino acids were analyzed by HPLC after acid hydrolysis as described in Henderson, J. W., et al. Agilent Technologies (2010).

[2] = Intact half-life during simulated gastric fluid (SGF) digestion; conditions: for SGF Half-life (t½): SGF pH 1.5, pepsin:polypeptide 1:20 w/w, 37° C., produced in E. coli unless otherwise noted
[3] = Thermostability, ProteoStat Thermal Shift Stability Kit, temperature of aggregation; assay type: physicochemical; conditions: pH 7.1; heated from 25° C. to 95° C.
Protocol: Thermostability. The thermostability of proteins in a buffer cocktail of Citric Acid and Dibasic Sodium Phosphate over a pH range of 2.8 to 7.1 (preparation described above in Table E31B) was determined using the ProteoStat® Thermal Shift Stability Kit (Enzo Life Sciences) according to the manufacturer's standard protocol. Briefly, protein solutions (˜10 mg/ml) containing 1× ProteoStat TS Detection Reagent were heated from 25° C. to 95° C. at a rate of 0.5° C. per 30 sec using a real-time PCR (rtPCR) thermocycler (BioRad) equipped with a plate reader (SynergyMx, Biotek) while monitoring the fluorescence with a Texas Red filter.

[4] = pH solubility screen in Citric Acid / Dibasic Sodium Phosphate buffers; assay type: physicochemical
Protocol: pH Solubility. […] Protein was either lyophilized and then resuspended in buffer cocktail mixtures, or concentrated and then spiked into buffer cocktail mixtures at a final protein concentration of 5 to 30 mg/ml. As a control, protein was also dissolved in a solution of 8 M urea. Protein solutions were shaken for 10 min at room temperature. Turbidity of proteins was determined by measuring the absorbance of protein solutions at 650 nm. The protein solution was then centrifuged for 10 min at 1100×g to pellet undissolved or precipitated protein. The soluble protein fraction (supernatant) was sampled and protein concentration was measured by one or more of the following methods: Coomassie Plus Protein Assay (Pierce), Chip electrophoresis, gel electrophoresis, and/or absorbance at 280 nm. The pH range over which select proteins remained greater than 80% soluble as determined by Bradford and the A650 value are listed in Table E31C.

[5] = tested on: kinase activity of SEQID-00338 (AMP + ATP→2ADP); test: Kinase activity of SEQID-00338 and mutants, ADP-Glo Max Assay; assay type: biochemical; conditions: 7 μg/mL, 30 minute reaction at 30° C.; N=2
Protocol: Determination of the kinase activity of SEQID-00338. The ADP-Glo™ Max Assay was obtained from Promega (Catalog number V7001, Madison, WI). Adenosine Monophosphate was obtained from Sigma-Aldrich (Catalog number A1752, St. Louis, MO). 5× Kinase Buffer was prepared w/1.211 g Tris Base (Catalog number BP152-2, Fisher Bioreagents, Pittsburgh, PA), 692 μL 12% hydrochloric acid solution (Catalog number BDH3026-500MLP, VWR, Radnor, PA), 10.0 mL 500 mM magnesium chloride (Catalog number BP214-500, Fisher Bioreagents, Pittsburgh, PA) and the volume brought to 50 mL with MilliQ water and filtered through 0.22 μm PES filter (Catalog number SCGP00525, Millipore, Billerica, MA) into a sterile 50 mL tube.
Twelve his-tag purified mutant proteins and the wild-type protein at 35 μg/mL in Tris buffer were serially diluted to 7.0 and 1.4 μg/mL. Prepared kinase reaction mix at 0.5 mM AMP/0.5 mM ATP to test for activity and at 0 mM AMP/0 mM ATP to assay background activity by diluting 5× Kinase Buffer with appropriate volumes of 10 mM AMP and 10 mM ATP in MilliQ water. Duplicate reactions were prepared by mixing 9 μL of the reaction mixture with 6 μL of diluted SEQID-00338, mixing by pipetting up and down and dispensing 5 μL into a 384-well white OptiPlate (PerkinElmer, Waltham, MA). An ADP standard curve was prepared by serially diluting 4 mM ADP in MilliQ water and adding kinase buffer to 1× for a standard at 0.0005, 0.001, 0.005, 0.01, 0.05, 0.1, 1.5, 1, 2, 3, and 4 mM ADP. The plate was covered with a foil plate seal and incubated at 30° C. for 30 min. Following the kinase reaction, 5 μL of ADP-Glo™ Reagent was added to each well. The plate was sealed with a foil plate seal and placed on a horizontal plate shaker at 450 rpm for 2 minutes at room temperature. The plate was removed from the plate shaker and incubated at room temperature for 40 minutes. The plate was then centrifuged for 15 seconds at 1109× rcf and 10 μL of ADP-Glo™ Max Detection Reagent was added. The plate was sealed with a foil plate seal and shaken on a horizontal plate shaker at 450 rpm at room temperature for 2 minutes. The plate was then removed from the plate shaker and incubated at room temperature for 60 minutes. The plate was centrifuged for 15 seconds at 1109× rcf and the luminescence read on an EnspireAlpha plate reader (PerkinElmer, Waltham, MA).
The ADP standard curve was used to determine the concentration of ADP in sample wells in the presence or absence of substrate. Concentrations were determined by performing a non-linear 4 parameter logistic on the X=log(X) transformed ADP standard luminescence values. […] Where the background concentration of ADP in the absence of substrate was calculable the average of those values were subtracted from the calculated ADP concentration in the substrate incubated wells. Activity knock out was calculated by percentage activity relative to purified wild-type protein at the same concentration.

AVG proportion activity, percentage AMP + ATP→2ADP converted relative to wild-type [5]	Molecule	Solubility [1]	SGF Half-life (t½) [2]	also measured
1.2%	R42G: single amino acid mutant of SEQID-00338 at substrate binding position 42 (protein, listed as Saccharomyces cerevisiae, strain ATCC 204508 / S288c) MSSSESIRMVLIGPPGAGKGTQAPNLQERFHAAHLATGDMLGSQIAKGTQLGLEAKKIMDQGGLVSDDIMVNMIKDELTNNPACKNGFILDGFPRTIPQAEKLDQMLKEQGTPLEKAIELKVDDELLVARITGRLIHPASGRSYHKIFNPPKEDMKDDVTGEALVQRSDDNADALKKRLAAYHAQTEPIVDFYKKTGIWAGVDASQPPATVWADILNKLGKD	–	–	–
2.2%	R42K: single amino acid mutant of SEQID-00338 at substrate binding position 42 (protein, listed as Saccharomyces cerevisiae, strain ATCC 204508 / S288c) MSSSESIRMVLIGPPGAGKGTQAPNLQERFHAAHLATGDMLKSQIAKGTQLGLEAKKIMDQGGLVSDDIMVNMIKDELTNNPACKNGFILDGFPRTIPQAEKLDQMLKEQGTPLEKAIELKVDDELLVARITGRLIHPASGRSYHKIFNPPKEDMKDDVTGEALVQRSDDNADALKKRLAAYHAQTEPIVDFYKKTGIWAGVDASQPPATVWADILNKLGKD	–	–	–
1.8%	R42C: single amino acid mutant of SEQID-00338 at substrate binding position 42 (protein, listed as Saccharomyces cerevisiae, strain ATCC 204508 / S288c) MSSSESIRMVLIGPPGAGKGTQAPNLQERFHAAHLATGDMLCSQIAKGTQLGLEAKKIMDQGGLVSDDIMVNMIKDELTNNPACKNGFILDGFPRTIPQAEKLDQMLKEQGTPLEKAIELKVDDELLVARITGRLIHPASGRSYHKIFNPPKEDMKDDVTGEALVQRSDDNADALKKRLAAYHAQTEPIVDFYKKTGIWAGVDASQPPATVWADILNKLGKD	–	–	–
0.9%	R42A: single amino acid mutant of SEQID-00338 at substrate binding position 42 (protein, listed as Saccharomyces cerevisiae, strain ATCC 204508 / S288c) MSSSESIRMVLIGPPGAGKGTQAPNLQERFHAAHLATGDMLASQIAKGTQLGLEAKKIMDQGGLVSDDIMVNMIKDELTNNPACKNGFILDGFPRTIPQAEKLDQMLKEQGTPLEKAIELKVDDELLVARITGRLIHPASGRSYHKIFNPPKEDMKDDVTGEALVQRSDDNADALKKRLAAYHAQTEPIVDFYKKTGIWAGVDASQPPATVWADILNKLGKD	–	–	–
0.2%	R134Y: single amino acid mutant of SEQID-00338 at substrate binding position 134 (protein, listed as Saccharomyces cerevisiae, strain ATCC 204508 / S288c) MSSSESIRMVLIGPPGAGKGTQAPNLQERFHAAHLATGDMLRSQIAKGTQLGLEAKKIMDQGGLVSDDIMVNMIKDELTNNPACKNGFILDGFPRTIPQAEKLDQMLKEQGTPLEKAIELKVDDELLVARITGYLIHPASGRSYHKIFNPPKEDMKDDVTGEALVQRSDDNADALKKRLAAYHAQTEPIVDFYKKTGIWAGVDASQPPATVWADILNKLGKD	–	–	–

Further lines, the molecule ahead of its results:

Molecule	AVG proportion activity, percentage AMP + ATP→2ADP converted relative to wild-type [5]	Solubility [1]	SGF Half-life (t½) [2]	also measured
SEQID-00102: nutritive polypeptide (protein, listed as Lactobacillus johnsonii) MTEEEIFNKIADMISERFSIDRDKITKDLNFQNDLDADSIDFVELVMDLEDTFGAEIPDDDAEKLQTVGEAVEYIKSHQN	–	120 mg/mL	36 s	Tagg (pH 7.1) [3]: >95
SEQID-00598: nutritive polypeptide naturally produced in Flaxseed, recombinantly expressed in E. coli (protein, listed as Linum usitatissimum) MSRRCPGKNAWPELVGKSGNMAAATVERENRNVHAIVLKEGSAMTKDFRCDRVWVIVNDHGVVTSVPHIT	–	150 mg/mL	30 s	Half-life ([2]; purified proteins, chip electrophoresis, SGF): 30 s
SEQID-00265: nutritive polypeptide (protein, listed as Bos taurus) SEGDRLRVELAEKANKLQNELDNVSTLLEEAEKKGIKFAKDAAGLESQLQDTQELLQEETRQKLNLSSRIRQLEEERSSLQEQQEEEEEARRSLEKQLQALQAQLTDTKKKVDDDLGTIENLEEAKKKLLKDVEVLSQRLEEKALAYDKLEKTKTRLQQELDDLLVDLDHQRQIVSNLEKKQKKFDQLLAEEKNISARYAEERDRAEAEAREKETKALSLARALEEALEAREEAERQNKQLRADMEDLMSSKDDVGKNVHELEKSKRALE	–	95 mg/mL	1740 s	Tagg (pH 7.1) [3]: >95; pH Range where Protein is >80% detected as Soluble and A650 <1 OD: Low ([4]; lower pH of range): 5.1; pH Range where Protein is >80% detected as Soluble and A650 <1 OD: Other ([4]; other pH where soluble): 3; pH Range where Protein is >80% detected as Soluble and A650 <1 OD: High ([4]; upper pH of range): 9.1
SEQID-00099: nutritive polypeptide (protein, listed as Thermosynechococcus elongatus) MNQSEILEKVKAIVADQLSVDPEKVVPEASFAEDLNADSLDSVELIMALEEEFGVEIPDEEAEKLKTVQDVLDFINNKVAA	–	91 mg/mL	60 s	Tagg (pH 7.1) [3]: 64
R134M: single amino acid mutant of SEQID-00338 at substrate binding position 134 (protein, listed as Saccharomyces cerevisiae, strain ATCC 204508 / S288c) MSSSESIRMVLIGPPGAGKGTQAPNLQERFHAAHLATGDMLRSQIAKGTQLGLEAKKIMDQGGLVSDDIMVNMIKDELTNNPACKNGFILDGFPRTIPQAEKLDQMLKEQGTPLEKAIELKVDDELLVARITGMLIHPASGRSYHKIFNPPKEDMKDDVTGEALVQRSDDNADALKKRLAAYHAQTEPIVDFYKKTGIWAGVDASQPPATVWADILNKLGKD	0.3%	–	–	–
R42I: single amino acid mutant of SEQID-00338 at substrate binding position 42 (protein, listed as Saccharomyces cerevisiae, strain ATCC 204508 / S288c) MSSSESIRMVLIGPPGAGKGTQAPNLQERFHAAHLATGDMLISQIAKGTQLGLEAKKIMDQGGLVSDDIMVNMIKDELTNNPACKNGFILDGFPRTIPQAEKLDQMLKEQGTPLEKAIELKVDDELLVARITGRLIHPASGRSYHKIFNPPKEDMKDDVTGEALVQRSDDNADALKKRLAAYHAQTEPIVDFYKKTGIWAGVDASQPPATVWADILNKLGKD	1.5%	–	–	–
